Measured values published in patent US20190300590A1 (PROTAGONIST THERAPEUTICS, published 2019).
Bridges are numbered along the chain shown (N, C = ends). [ ]: non-standard residue; d: D form. 2Nal = N[C@@H](Cc1ccc2ccccc2c1)C(=O)O; AEF = NCCOc1ccc(C[C@H](N)C(=O)O)cc1; hLeu = CC(C)CC[C@H](N)C(=O)O; Ac6c = NC1(C(=O)O)CCCCC1; Abu = CC[C@H](N)C(=O)O; Ac4c = NC1(C(=O)O)CCC1; Ac3c = NC1(C(=O)O)CC1; Aib = CC(C)(N)C(=O)O

What was measured:
[1] = target: T1, IL-23R on human cells (IL-23R-expressing DB cells; human NK cells) (human, UniProt Q5VWK5 24-629); assay: cell-based or functional assay
T1 sequence (looked up): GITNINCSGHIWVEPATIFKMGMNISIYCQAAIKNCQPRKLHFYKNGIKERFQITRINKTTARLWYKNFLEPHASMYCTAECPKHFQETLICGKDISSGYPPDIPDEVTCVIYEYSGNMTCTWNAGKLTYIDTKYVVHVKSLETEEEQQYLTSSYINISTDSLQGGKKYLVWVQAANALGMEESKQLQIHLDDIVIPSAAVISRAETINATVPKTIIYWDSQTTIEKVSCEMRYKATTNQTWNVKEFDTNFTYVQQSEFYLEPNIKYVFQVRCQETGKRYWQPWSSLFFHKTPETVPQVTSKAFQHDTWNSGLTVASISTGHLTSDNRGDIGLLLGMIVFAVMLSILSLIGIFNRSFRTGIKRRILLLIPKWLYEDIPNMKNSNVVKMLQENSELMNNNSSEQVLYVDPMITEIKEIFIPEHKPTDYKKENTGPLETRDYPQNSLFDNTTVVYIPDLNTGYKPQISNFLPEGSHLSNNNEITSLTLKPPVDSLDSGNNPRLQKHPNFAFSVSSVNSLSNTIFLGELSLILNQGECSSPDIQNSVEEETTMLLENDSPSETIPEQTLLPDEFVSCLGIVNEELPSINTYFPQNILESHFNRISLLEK

Rat IL-23R_huFC [2] = target: Rat IL-23R_huFC (rat); assay: rat ELISA vs IL-23
IL23R_huFC = target: T2, IL23R_huFC (human, UniProt Q5VWK5 24-353); assay: human ELISA vs IL-23
T2 sequence (looked up): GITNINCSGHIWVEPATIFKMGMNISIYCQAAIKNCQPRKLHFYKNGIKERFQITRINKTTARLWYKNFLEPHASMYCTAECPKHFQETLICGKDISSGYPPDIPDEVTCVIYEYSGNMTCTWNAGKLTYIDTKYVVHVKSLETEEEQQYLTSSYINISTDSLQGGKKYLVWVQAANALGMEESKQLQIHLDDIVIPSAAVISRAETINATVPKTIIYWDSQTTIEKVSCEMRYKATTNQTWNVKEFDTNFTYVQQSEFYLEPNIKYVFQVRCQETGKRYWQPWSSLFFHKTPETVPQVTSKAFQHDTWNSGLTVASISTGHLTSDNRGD

[3] = target: T1, IL-23R on human cells …; assay: cell-based or functional assay; remark: listed apart in the source
Rat IL-23R_huFC [4] = target: T3, Rat IL-23R_huFC (rat, UniProt F1LX96 39-369); assay: rat IL-23R competitive binding ELISA
T3 sequence: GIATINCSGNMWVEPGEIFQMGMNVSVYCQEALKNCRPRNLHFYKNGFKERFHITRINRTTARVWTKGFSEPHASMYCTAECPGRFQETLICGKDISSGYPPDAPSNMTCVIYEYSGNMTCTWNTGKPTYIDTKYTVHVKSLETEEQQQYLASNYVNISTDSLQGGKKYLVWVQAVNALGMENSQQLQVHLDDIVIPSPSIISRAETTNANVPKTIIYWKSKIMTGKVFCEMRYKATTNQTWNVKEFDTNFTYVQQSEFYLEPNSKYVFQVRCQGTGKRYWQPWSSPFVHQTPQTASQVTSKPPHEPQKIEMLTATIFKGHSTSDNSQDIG

IL-23R on DB cells = target: T4, IL-23R on DB cells (human, UniProt Q5VWK5 24-629); assay: cell-based or functional assay
T4 sequence (looked up): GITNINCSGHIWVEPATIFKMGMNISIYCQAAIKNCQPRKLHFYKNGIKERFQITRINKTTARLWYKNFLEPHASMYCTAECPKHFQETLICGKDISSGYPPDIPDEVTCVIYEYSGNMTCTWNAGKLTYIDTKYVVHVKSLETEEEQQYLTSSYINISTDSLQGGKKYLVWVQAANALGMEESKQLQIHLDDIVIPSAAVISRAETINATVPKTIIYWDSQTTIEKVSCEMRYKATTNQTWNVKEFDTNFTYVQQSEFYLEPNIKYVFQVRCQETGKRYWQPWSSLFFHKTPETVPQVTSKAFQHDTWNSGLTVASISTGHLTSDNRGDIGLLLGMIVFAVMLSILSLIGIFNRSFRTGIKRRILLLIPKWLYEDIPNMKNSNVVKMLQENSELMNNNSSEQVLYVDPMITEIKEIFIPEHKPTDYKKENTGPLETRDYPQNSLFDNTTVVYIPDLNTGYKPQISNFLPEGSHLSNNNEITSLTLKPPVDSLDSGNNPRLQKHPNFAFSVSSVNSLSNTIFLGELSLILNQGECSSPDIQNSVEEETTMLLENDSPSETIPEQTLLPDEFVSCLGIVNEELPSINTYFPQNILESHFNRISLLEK

Row | Binder | NK cell assay IC50 (IFNγ) [1] | IC50 (Rat IL-23R_huFC [4]) | also measured
1 | Ac-[Abu]QTWQC[AEF][2Nal][Aib]K(Ac)NA-NH2 (thioether 1-6) [Ac-Cyclo-[[Abu]-QTWQC]-[Phe[4-(2-aminoethoxy)]]-[2-Nal]-[Aib]-[Lys(Ac)]-NA-NH2] | < 25 nM |  | IC50 (Rat IL-23R_huFC [2]): 10 to 25 nM; IC50 (IL23R_huFC): < 10 nM; pStat3 HTRF IC50 [3]: < 10 nM
2 | Ac-[Abu]QTWQC[AEF][2Nal][Aib]QNG-NH2 (thioether 1-6) [Ac-Cyclo-[[Abu]-QTWQC]-[Phe[4-(2-aminoethoxy)]]-[2-Nal]-[Aib]-QNG-NH2] | < 25 nM |  | IC50 (Rat IL-23R_huFC [2]): 10 to 25 nM; IC50 (IL23R_huFC): < 10 nM; pStat3 HTRF IC50 [3]: < 10 nM
3 | Ac-FCQTWQCYW[hLeu]ENG-NH2 (cysteine pairing not given here) [Ac-FCQTWQCYW-[hLeu]-ENG-NH2] |  | 25 nM | 
4 | Ac-LCQTWQCYW[hLeu]ENG-NH2 (cysteine pairing not given here) [Ac-LCQTWQCYW-[hLeu]-ENG-NH2] |  | 26 nM | 
5 | XNTWQXFXXKNN (Ac; Pen-Pen disulfide; Phe(4-OMe); 2-Nal; Acvc; NH2; DIG linker joins the two subunits) [[Ac-[Pen]-NTWQ-[Pen]-[Phe(4-OMe)]-[2-Nal]-[Acvc]-KNN-NH2]2DIG] |  |  | pStat3 HTRF IC50 (IL-23R on DB cells): < 10 nM
6 | Ac-CSTWQCYWSKQSGGS-NH2 (disulfide 1-6; SMILES CC(=O)N[C@H]1CSSC[C@@H](C(=O)N[C@@H](Cc2ccc(O)cc2)C(=O)N[C@@H](Cc2c[nH]c3ccccc23)C(=O)N[C@@H](CO)C(=O)N[C@@H](CCCCN)C(=O)N[C@@H](CCC(N)=O)C(=O)N[C@@H](CO)C(=O)NCC(=O)NCC(=O)N[C@@H](CO)C(N)=O)NC(=O)[C@H](CCC(N)=O)NC(=O)[C@H](Cc2c[nH]c3ccccc23)NC(=O)[C@H]([C@@H](C)O)NC(=O)[C@H](CO)NC1=O) [Ac-CSTWQCYWSKQSGGS-NH2] |  | 204 nM | 
7 | Ac-CRTWQCYWLRLGDEG-NH2 (disulfide 1-6 (inferred)) [Ac-CRTWQCYWLRLGDEG-NH2] |  | 483 nM | 
8 | Ac-CQTWQCYW[Aib]ENG-NH2 (disulfide 1-6 (inferred)) [Ac-CQTWQCYW-[Aib]-ENG-NH2] |  | 34 nM | 
9 | Ac-[Abu]QTWQC[AEF][2Nal][Ac4c]ENN-NH2 (thioether 1-6) [Ac-Cyclo-[[Abu]-QTWQC]-[Phe[4-(2-aminoethoxy)]]-[2-Nal]-[Acbc]-ENN-NH2] | < 25 nM |  | pStat3 HTRF IC50 [3]: < 10 nM
10 | Ac-[Abu]QTWQC[AEF][2Nal][Ac3c]ENN-NH2 (thioether 1-6) [Ac-Cyclo-[[Abu]-QTWQC]-[Phe[4-(2-aminoethoxy)]]-[2-Nal]-]Acpc]-ENN-NH2] | < 25 nM |  | 
11 | CQTWQCYWXENG (Ac; α-MeOrn; NH2) [Ac-CQTWQCYW-[α-MeOrn]-ENG-NH2] |  | 64 nM | 
12 | Ac-[Abu]QTWQC[AEF][2Nal][Ac6c]ENN-NH2 (thioether 1-6) [Ac-Cyclo-[[Abu]-QTWQC]-[Phe[4-(2-aminoethoxy)]]-[2-Nal]-[Achc]-ENN-NH2] | < 25 nM |  | pStat3 HTRF IC50 [3]: < 10 nM
13 | XNTWQXFXXKNN (Ac; Pen-Pen disulfide; Phe(4-CONH2); 2-Nal; 4-amino-4-carboxy-tetrahydropyran; NH2; DIG linker joins the two subunits) [[Ac-[Pen]-NTWQ-[Pen]-[Phe(4-CONH2)]-[2-Nal]-[4-amino-4-carboxy-tetrahydropyran]-KNN-NH2]2DIG] |  |  | pStat3 HTRF IC50 (IL-23R on DB cells): < 10 nM
14 | Ac-CQTWQCYW[hLeu]ENGG-NH2 (cysteine pairing not given here) [Ac-CQTWQCYW-[hLeu]-ENGG-NH2] |  | 140 nM | 
15 | FXQTWQCFXXENN (as bracketed in name; thioether cyclo) | < 25 nM |  | 
16 | XNTWQXFXLKNN (Ac; Pen-Pen disulfide; Phe(4-CONH2); 2-Nal; α-MeLeu; NH2; DIG linker joins the two subunits) [[Ac-[Pen]-NTWQ-[Pen]-[Phe(4-CONH2)]-[2-Nal]-[α-MeLeu]-KNN-NH2]2DIG] |  |  | pStat3 HTRF IC50 (IL-23R on DB cells): < 10 nM
